Test: immunofluorescence, data not shown
Settings: glycan lost; control: untreated

B1: CLN5: tunicamycin (protein)
parent chain: MAQEVDTAQGAEMRRGAGAARGRASWCWALALLWLAVVPGWSRVSGIPSRRHWPVPYKRFDFRPKPDPYCQAKYTFCPTGSPIPVMEGDDDIEVFRLQAPVWEFKYGDLLGHLKIMHDAIGFRSTLTGKNYTMEWYELFQLGNCTFPHLRPEMDAPFWCNQGAACFFEGIDDVHWKENGTLVQVATISGNMFNQMAKWVKQDNETGIYYETWNVKASPEKGAETWFDSYDCSKFVLRTFNKLAEFGAEFKNIETNYTRIFLYSGEPTYLGNETSVFGPTGNKTLGLAIKRFYYPFKPHLPTKEFLLSLLQIFDAVIVHKQFYLFYNFEYWFLPMKFPFIKITYEEIPLPIRNKTLSGL
With B1 the localisation_or_trafficking was “changes”.

Source: paper PMC3769244
